Measurements: the supplement of paper PMC10567573

B1: MTMR15 (parent)
chain: YVKAKKSIDKDEEFAGSSPQSSKS

Variants of: B1
Assay: protein stability index of a GFP-peptide fusion (GPS, HEK-293T) (PSI 1-6); higher = more stable
Conditions: c terminus: a fixed tail appended
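Note: lentivirally expressed fusions sorted by FACS into six bins by GFP to DsRed ratio, PSI derived from sequencing read proportions per bin multiplied by bin number.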

| Variant | protein stability index |
| --- | --- |
| YVKEKKSIDKDEEFAGSSPQSSKS | 3.54 |
| YVKSKKSIDKDEEFAGSSPQSSKS | 2.45 |
| YVKAKKSIDKDEEFAGSSPQSSRS | 3.4 |
| YVKAKKSIDKDEEFAGSSPQSSLS | 3 |
| YVKAKKSIDKDEEFAGSSPQSSGS | 3.06 |
| YVKAKKSIDKDEEFAGSSPQSSHS | 3.33 |
| YVKAKKSIDKDEEFAGSSPQSSDS | 3.11 |
| YVKAKKSIDKDEEFAGSSPQSSFS | 3.02 |
| YVKAKKSIDKIEEFAGSSPQSSKS | 2.57 |
| YVKAKKSIDKREEFAGSSPQSSKS | 2.45 |
| YVKAKKSIDKPEEFAGSSPQSSKS | 2.56 |
| YVKAKKSIDKMEEFAGSSPQSSKS | 2.56 |
| YVKAKKSIDKQEEFAGSSPQSSKS | 2.94 |
| YVKAKKSIDKCEEFAGSSPQSSKS | 2.71 |
| YVKAKKSIDKKEEFAGSSPQSSKS | 2.64 |
| YVKAKKSIDKEEEFAGSSPQSSKS | 2.85 |
| YVKAKKSIDKAEEFAGSSPQSSKS | 2.83 |
| YVKAKKSIDKLEEFAGSSPQSSKS | 2.46 |
| YVKAKKSIDKHEEFAGSSPQSSKS | 2.92 |
| YVKAKKSIDKTEEFAGSSPQSSKS | 2.5 |
| YVKAKKSIDKDEEFAGSSPQSSKF | 2.79 |
| YVKAKKSIDKDEEFAGSSPQSSKM | 3.02 |
| YVKAKKSIDKDEEFAGSSPQSSKN | 3.61 |
| YVKAKKSIDKDEEFAGSSPQSSKI | 3.19 |

| Variant | protein stability index |
| --- | --- |
| YVKAKKSIDKDEEFAGSSPQSSKK | 2.58 |
| YVKAKKSIDKDEEFAGSSPQSSKY | 2.83 |
| YVKAKKSIDKDEEFAGSSPQSSKR | 2.37 |
| YVKAKKSIDCDEEFAGSSPQSSKS | 3.27 |
| YVKAKKSIDDDEEFAGSSPQSSKS | 3.42 |
| YVKAKKSIDGDEEFAGSSPQSSKS | 3.28 |
| YVKAKKSIDSDEEFAGSSPQSSKS | 3.25 |
| YVKAKKSIDTDEEFAGSSPQSSKS | 3.28 |
| YVKAKKSIDQDEEFAGSSPQSSKS | 2.67 |
| YVKAKKSIDNDEEFAGSSPQSSKS | 2.92 |
| YVKAKKSIVKDEEFAGSSPQSSKS | 2.77 |
| YVKAKKSIYKDEEFAGSSPQSSKS | 2.44 |
| YVKAKKSIFKDEEFAGSSPQSSKS | 1.92 |
| YVKAKKSIEKDEEFAGSSPQSSKS | 2.9 |
| YVKAKKSINKDEEFAGSSPQSSKS | 2.61 |
| YVKAKKSICKDEEFAGSSPQSSKS | 2.98 |
| YVKAKKSIDKDEEFAQSSPQSSKS | 3.21 |
| YVKAKKSIDKDEEFAASSPQSSKS | 3.07 |
| YVKAKKSIDKDEEFAVSSPQSSKS | 2.42 |
| YVKAKKSIDKDEEFACSSPQSSKS | 3.22 |
| YVKAKKSIDKDEEFAESSPQSSKS | 3.36 |
| YVKAKKSIDKDEEFAHSSPQSSKS | 2.71 |
| YVKAKKSIDKDEEFALSSPQSSKS | 2.85 |
| YVKAKKSIDKDEEFAPSSPQSSKS | 3.36 |

| Variant | protein stability index |
| --- | --- |
| YVKAKKSIDKDEEFATSSPQSSKS | 2.85 |
| YVKAKKSIDKDEENAGSSPQSSKS | 3.49 |
| YVKAKKSIDKDEEVAGSSPQSSKS | 3.61 |
| YVKAKKSIDKDEEMAGSSPQSSKS | 3.12 |
| YVKAKKSIDKDEEQAGSSPQSSKS | 2.89 |
| YVKAKKSIDKDEETAGSSPQSSKS | 3.55 |
| YVKAKKSIDKDEEWAGSSPQSSKS | 2.67 |
| YVKAKKSIDKDEEHAGSSPQSSKS | 3.47 |
| YVKAKKSIDKDEELAGSSPQSSKS | 3.27 |
| YVKAKKSIDKDAEFAGSSPQSSKS | 2.94 |
| YVKAKKSIDKDSEFAGSSPQSSKS | 2.92 |
| YVKAKKSIDKDYEFAGSSPQSSKS | 1.93 |
| YVKAKKSIDKDQEFAGSSPQSSKS | 2.98 |
| YVKAKKSIDKDGEFAGSSPQSSKS | 2.8 |
| YVKAKKSIDKDREFAGSSPQSSKS | 2.6 |
| YVKAKKSIDKDVEFAGSSPQSSKS | 2.3 |
| YVKAKKSIDKDNEFAGSSPQSSKS | 2.64 |
| YVKAKKSIDKDLEFAGSSPQSSKS | 2.78 |
| YVKAKKSIDKDHEFAGSSPQSSKS | 2.71 |
| YVKAKKSIDKDFEFAGSSPQSSKS | 2.37 |
| YVKAKKSIDKDEEFAGSSKQSSKS | 2.63 |
| YVKAKKSIDKDEEFAGSSVQSSKS | 2.21 |
| YVKAKKSIDKDEEFAGSSDQSSKS | 3.37 |
| YVKAKKSIDKDEEFAGSSYQSSKS | 3.02 |

| Variant | protein stability index |
| --- | --- |
| YVKAKKSIDKDEEFAGSSSQSSKS | 3.42 |
| YVKAKKSIDKDEEFAGSSMQSSKS | 3.42 |
| YVKAKKSIDKDEEFAGSSRQSSKS | 2.45 |
| YVKAKKSIDKDEEFAGSSAQSSKS | 3.19 |
| YVKAKKSIDKDEEFAGSSNQSSKS | 3.09 |
| YVKAKKSIDKDEEFAGSSHQSSKS | 3.25 |
| CVKAKKSIDKDEEFAGSSPQSSKS | 5.51 |
| NVKAKKSIDKDEEFAGSSPQSSKS | 5.4 |
| TVKAKKSIDKDEEFAGSSPQSSKS | 5.69 |
| KVKAKKSIDKDEEFAGSSPQSSKS | 5.15 |
| VVKAKKSIDKDEEFAGSSPQSSKS | 5.29 |
| PVKAKKSIDKDEEFAGSSPQSSKS | 5.19 |
| DVKAKKSIDKDEEFAGSSPQSSKS | 5.62 |
| GVKAKKSIDKDEEFAGSSPQSSKS | 5.7 |
| LVKAKKSIDKDEEFAGSSPQSSKS | 5.14 |
| YVKAKKSIDKDEEFAGSSPQSEKS | 3.47 |
| YVKAKKSIDKDEEFAGSSPQSPKS | 3.22 |
| YVKAKKSIDKDEEFAGSSPQSKKS | 1.92 |
| YVKAKKSIDKDEEFAGSSPQSMKS | 3.06 |
| YVKAKKSIDKDEEFAGSSPQSRKS | 3.59 |
| YVKAKKSIDKDEEFAGSSPQSVKS | 3.36 |
| YVKAKKSIDKDEEFAGSSPQSFKS | 2.89 |
